Molecular target: Escherichia coli CTP synthase (ecCTPS), wild type (Escherichia coli) (UniProt P0A7E5)
Assay: cryo-EM structure

- stoichiometry N: 4
Substance: Escherichia coli CTP synthase (ecCTPS), wild type (from UniProt P0A7E5 1-545) (enzyme)
